Assay results from the supplement of paper PMC9170038.

What was measured:
[1] = tested on: K4 kissing-loop RNA reporter; experiment: apparent KD of K4 kissing-loop reporter; higher = weaker reporter binding; conditions: Eterna round: R107;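 further: bound reporter read as fluorescence of individual clusters on recovered sequencing chips by microscopy, with normalized cluster intensities fitted with a binding model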
Experimental: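 RNA-MaP round R107: designed RNA switches with theophylline, tryptophan, arginine or FMN aptamers are transcribed on-chip within common flanks. They are titrated with a labelled K4 kissing-loop RNA reporter in RNA-MaP buffer (100 mM Tris pH 7.5, 80 mM KCl, 4 mM MgCl2), without ligand or with the indicated ligand. Median apparent KD per design.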

[2] = tested on: MS2 coat protein; experiment: apparent KD of MS2 coat protein; designed switch direction (-1 OFF switch, 1 ON switch): -1; higher = weaker reporter binding
Procedure, shortened: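 The buffer was Tris-HCl pH 7.5 with KCl, MgCl2, BSA, DTT, tRNA and Tween-20. In it, SNAP-549-labelled MS2 coat protein was titrated in doubling steps from 0.7 or 1.5 nM to 3 µM over chip-bound RNA switches transcribed by stalled E. coli RNA polymerase on Illumina chips. Apparent KD is the per-design median over clusters of curve fits to normalised fluorescence.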

[3] = input ligand: theophylline 20 uM
[4] = input ligand: tryptophan 2.4 mM
[5] = Eterna round: R95, input ligand: FMN 200 uM
[6] = Eterna round: R95, input ligand: microRNA oligo, concentration not stated
[7] = Eterna round: R95, input ligand: none

Sequence	apparent KD of K4 kissing-loop reporter ([1]; input ligand: FMN 200 uM)	apparent KD of K4 kissing-loop reporter ([1]; input ligand: arginine 13.2 mM)	apparent KD of K4 kissing-loop reporter ([1]; input ligand: none)	apparent KD of K4 kissing-loop reporter [1, 3]	apparent KD of K4 kissing-loop reporter [1, 4]	apparent KD of MS2 coat protein [2, 5]	apparent KD of MS2 coat protein [2, 6]	apparent KD of MS2 coat protein [2, 7]	apparent KD of MS2 coat protein ([2]; input ligand: FMN 200 uM)	apparent KD of MS2 coat protein ([2]; input ligand: none)
GGGUCAUGGAACGGAUAAGUGAUGUUUACCCGAGGACCGGUACGGCCGCCACUCGGUCGUUAUUUCCGACGUGCUGGUAAGACUA [theeternabot_exclusion_KL_Trp_A_10]	336 nM	253 nM	378 nM	348 nM	475 nM	–	–	–	–	–
CGAGUCGGUUCAGAUACCAGCCAAUUAGAGUCGAGUGAUGUUCGACAAUGAACGUCCAAAGGCCCUUGGCAGCUGGAUUGGGAAC [Same State Theophylline B GF 20]	157 nM	61.1 nM	104 nM	112 nM	171 nM	–	–	–	–	–
GUCCCAGUGAUGUUGGUAGGCGAGCGGGAUACCAGCGAAGACUCACGCCCUUGGCAGCCCACAUAUCCCGCGUAGGGAUUAGCUC [Same State - Theophylline A (Freestyle 21)]	364 nM	315 nM	431 nM	415 nM	347 nM	–	–	–	–	–
UUUUUGGUUUAGAGUGAUGUUCCUUGUAUUCGAGGACCGGUACGGCCGCCACUCGAAUAGAAAAGAAAAGAAAAGAGUGAUGUUU [BDazzled - #3 SS Tryptophan A]	308 nM	229 nM	292 nM	356 nM	252 nM	–	–	–	–	–
GCGCGUCAUGUCAGCGGUGACACUGUCGAUACCAGUGCCGUAAGGCGCCCUUGGCAGCGACGUGCUGGAGUGAUGUUCCAGCGUU [#2 Exclusion - Theophylline A Attempt #31 (HarryS)]	143 nM	132 nM	153 nM	154 nM	146 nM	–	–	–	–	–
CAGGUGCUGAUGCGGUGGCCGGUGGUCGUGCGAGGACCGGUACGGCCGCCACUCGCAUGAGUGAUGUUCAUGUGUCGUCGUCGUC [whbob_EX_Tryp_A_t2]	229 nM	136 nM	188 nM	192 nM	223 nM	–	–	–	–	–
UGUGUUUACCUGACUCAGUGAUGUUGAGAAGGAGCGUUCGAAAGAACAGGUAGGUCGCUCAACCUAAAUUCAGGUGAGCACUAAA	264 nM	223 nM	376 nM	466 nM	322 nM	–	–	–	–	–
UGUACCGAGUCAGGAUAUGAACGACUGACAAAAGUCGGUCGAAUAUCCAGUGAUGUUGGAAAUAAAUCAGAAGGGACUUGGUACU [FmnBS 15 #SwitchBubble #StaticStem]	130 nM	805 nM	974 nM	840 nM	726 nM	–	–	–	–	–
UGACUGGACUGAAGGAGCGCGAACUCCUAGUGAUGUUAGGAAAUACGAGACAAAGUCUCGACGCAGGUAGGUCGCAGUCUAGUCU [ArgBS 15 #SwitchBubble #StaticStem]	110 nM	86.6 nM	107 nM	104 nM	98 nM	–	–	–	–	–
AGCGGCCAGUCGGCCGCCACUCCAAGCAGUGAUGUUGCUAAGUUUCUACAAGAGUGAUGUUCUUAGAGGACCGGGACUGAUGUGA [Exclusion Tryptophan B Gf 7]	192 nM	240 nM	211 nM	241 nM	157 nM	–	–	–	–	–
AGCUCAGAGUGACUCGAUAAGAGUCACAAACGAGGACCGGUACGGCCGCCACUCGAAAUAAAGAGAGUGAUGUUCUCGCUGAGCA [FiskerMod 9 - Jieux - Same State Tryptophan A]	200 nM	211 nM	223 nM	239 nM	795 nM	–	–	–	–	–
CCAGAAUGAUGAAGAUGAUAAAUUACUGAAGGAGCGCAUAUAGUUGCAGGUAGGUCGCGGUGAAUAAGUAUAGUGAUGUUAUACC [SSArgA.Ac]	265 nM	167 nM	221 nM	217 nM	204 nM	–	–	–	–	–
UGCACCAGUGAUGUUGGUCGGCACCGAGAUACCAGCUGAUCUCUUAGCCCUUGGCAGCUCUUUAUUCGCGUUAUCAGUUUCUUCG [theeternabot_sameState_KL_Theo_A_16]	428 nM	368 nM	464 nM	416 nM	345 nM	–	–	–	–	–
GACCCAGAAGCACACCUAAAGUUGACAGAUACCAGCGUCGUUUGGCGCCCUUGGCAGCUGGUCAGUGAUGUUGAUAGCUUCGACU [theeternabot_sameState_KL_Theo_A_24]	197 nM	69.5 nM	181 nM	89.5 nM	93.6 nM	–	–	–	–	–
CAGGCGACUAUCGAUACCAGAUGAUAUCGACUACUUGAGUGAUGUUCGAUUAAAGGCAUUAUCCCUUGGCAGCGACUGGACACAU [theeternabot_sameState_KL_Theo_B_24]	706 nM	505 nM	667 nM	659 nM	414 nM	–	–	–	–	–
CGAUGUUCCUGGGAUACCAGUCGGAGUCUCAGAGCUCGGAGUGAUGUUCUGGGAUGUUUCGGCCCUUGGCAGCUCUGGGACUCCU [#2 Exclusion - Theophylline B Attempt #22 (HarryS)]	881 nM	630 nM	819 nM	840 nM	662 nM	–	–	–	–	–
GCCGUAGAUUGAAGGAGCGUUCUUCAGCAUACUUGCAGUGAUGUUGCAUUUUACAUGUAAGAACAGGUAGGUCGCAAUCUACGGC	–	119 nM	412 nM	40 nM	235 nM	–	–	–	–	–
UUCGUAGUAGGAAACUAUUACGAAAAGGAAGGAGCGGCGAAGAAGCCAGGUAGGUCGCCUAUUGACAGUGAUGUUGUUAUGUAGA [#9]	172 nM	341 nM	241 nM	360 nM	142 nM	–	–	–	–	–
CGCGAGUCCUUUCAGUGAGUGAUGUUUACGCGAGGACCGGUACGGCCGCCACUCGAUGGUAUACCAAGACAUCAGCAGAUUGUCU [theeternabot_exclusion_KL_Trp_A_18]	304 nM	304 nM	321 nM	387 nM	342 nM	–	–	–	–	–

Sequence	apparent KD of K4 kissing-loop reporter ([1]; input ligand: FMN 200 uM)	apparent KD of K4 kissing-loop reporter ([1]; input ligand: arginine 13.2 mM)	apparent KD of K4 kissing-loop reporter ([1]; input ligand: none)	apparent KD of K4 kissing-loop reporter [1, 3]	apparent KD of K4 kissing-loop reporter [1, 4]	apparent KD of MS2 coat protein [2, 5]	apparent KD of MS2 coat protein [2, 6]	apparent KD of MS2 coat protein [2, 7]	apparent KD of MS2 coat protein ([2]; input ligand: FMN 200 uM)	apparent KD of MS2 coat protein ([2]; input ligand: none)
UGCCGGAAGGCGAGCGCUCCCACUCCGGAAGGAGCGCCCGUAAGGGCAGGUAGGUCGCCGGAGUGAUGUUCCGGUGGAGGGCUCG [#2 Exclusion - Arginine A Attempt #22 (Inspired by Omei)]	203 nM	128 nM	193 nM	185 nM	244 nM	–	–	–	–	–
AAACUACGUGACGAUACCAGCUUACUCGGCAAGCCAGUGAUGUUGGUGAAAAGGAGUCAAAGCCCUUGGCAGCGUCGAAGGUUUG [Usandiat]	257 nM	215 nM	252 nM	129 nM	255 nM	–	–	–	–	–
UGAUACCAGACGGCCGCCACUAGGGCUAGCAAAGCUAGCAAGUGAUGUUUGAGGAGUGAUGUUCCUAGGACCGGGUCUGGUAUCU [TrypBX 1 #Palindromic #SwitchBubble #StaticStem]	60.5 nM	36.3 nM	52.2 nM	46.5 nM	25.9 nM	–	–	–	–	–
UGGAGUUGACGAAAAGUCAACUCCUGAGAUACCAGUGACGAAAGUCACCCUUGGCAGCUCACUGCCAGUGAUGUUGGAAAAUAAA [#OpenEnded 1]	527 nM	295 nM	238 nM	204 nM	387 nM	–	–	–	–	–
GUUCUGAUGGAAACAUCGGAACAUACUGAUACCAGUAUCGAUAGAUACCCUUGGCAGCAGAAUCAGUAAUAACGAGUGAUGUUCG [Ex Theophylline A K4 2]	275 nM	247 nM	293 nM	273 nM	257 nM	–	–	–	–	–
AAUUUAUAUUUAUUCUUUAAAUGUUCAGAAGGAGCGUGAAUUAUCACAGGUAGGUCGCUGAGCUAGUGAUGUUGGCUAUAUACUA [whbob_Ex_Arginine_A_2t124]	167 nM	219 nM	202 nM	217 nM	138 nM	–	–	–	–	–
AUGGUAUUGCGAGGAUAUCCUUCAAACGUGACACUAACGGCAGUGAUGUUGCCGGCGUCGAUCAGAGGAGAAGGCGCGGUGUUAU [Exclusion FMN B GF 23]	118 nM	117 nM	122 nM	125 nM	119 nM	–	–	–	–	–
GUGAGGAUCAGAAGGAGCGUCGGCAAUCCAGUGAUGUUGGGUGUUGGUUAUAUUUAACGACGACAGGUAGGUCGCUGAUUUUCAA [Same State Arginie B GF 21]	163 nM	107 nM	163 nM	190 nM	140 nM	–	–	–	–	–
AAUAAAAUCACGGCCGCCACUGAUUAUUUUAUUAGGAGUGAUGUUCCUAUGACAAUAUACCUUAACAGGACCGGGUGAAUAUUUA [JR_ExcTryptoB_Sub010]	87.8 nM	89.6 nM	86.1 nM	94.4 nM	80.8 nM	–	–	–	–	–
UGACAUUGCUCAGAUACCAGACUUGAGGAUCACCCAAGUGCCAAACGUACAAUAAUAAAAGUCCCUUGGCAGCUGAGCAAUGUCU [TheoBX 14]	201 nM	13.4 nM	97.2 nM	112 nM	62.1 nM	–	–	–	–	–
UUAGUCUAGAGAAGGAGCGAGUGAUGUUUGCUAAGCUAUAUAAUAAAAUAUAGCAAAUUUACUCAGGUAGGUCGCUCUAGACAUU [AK3 Exc Arginine B]	153 nM	122 nM	98 nM	149 nM	74.2 nM	–	–	–	–	–
GGGCCUGGGCCCGUAAGGGCCUGGGCCCGUUAGGAUAUGACGUGAUUCAGAAGGGAUGGGUGGAGUGAUGUUCCACCCGAGAGGG [#2 Same State - FMN A Attempt #24 (HarryS)]	111 nM	97.7 nM	117 nM	88.5 nM	96.7 nM	–	–	–	–	–
AGGUACAAAAGUACCGCUAGAUCCACGGAAGGAGCGCCCGAAAGGGCAGGUAGGUCGCCGGGCAGUGAUGUUGCCGGAUCUAGCA [Omei KL Arginine A SS A v6]	162 nM	163 nM	156 nM	181 nM	139 nM	–	–	–	–	–
UAUAUAGUGACGGCCGCCACUAUAUUAAUGUUUAGGUUAGAGUGAUGUUUUGAUUAAUAUUUUUAUAGGACCGGGUUAUAUGUUA [xerrmullin]	563 nM	314 nM	511 nM	739 nM	428 nM	–	–	–	–	–
CUUGGAAGGACGGCCGCCACUCGACAGUGAUGUUGUCCGAGUGGGUAGCGCAGUGAUGUUGUGUCGAGGACCGGGUCCUAGGAAU [Exclusion Tryptophan B GF 27]	185 nM	149 nM	170 nM	155 nM	137 nM	–	–	–	–	–
AAAGAACAUGAGGAUCACCCAUGUGAGGAUAUCGAGAAAAGAAAGAAGAAGAAGAAAACGAGAAGGCACAAGAA [The design that might work] (puzzle: Exclusion 1)	–	–	–	–	–	43.7 nM	65 nM	56.9 nM	–	–
GCAAGCUUUUUCGUGGGUGACAUGAGGAUCACCCAUGUUUGCCACGUCUUGUGGGCCCGGGCCCGCGGCCCGGGCCC [-44.9, -65.2, A 12%] (Eterna round: R97, puzzle: Sensor, turn-off variant 1)	–	–	–	–	–	–	–	–	54.6 nM	67.6 nM
AGACAGUCAGGAUAUACAUGAGGAUCACCCAUGUUGAGAUGAGAAAGGGCAGGAAGAGGUAGAAGGGACAAGAA [JR_Exclu3_Sub035] (puzzle: Exclusion 3)	–	–	–	–	–	28.3 nM	19.2 nM	24.8 nM	–	–
AAAUUGGUAGAGGAUAUUGUACAGGAAACGGUGCGAGAAGGUUGCACAUGAGGAUCACCCAUGUUUAGUUGCGA [EX6 #47] (Eterna round: R97, puzzle: Exclusion 6)	–	–	–	–	–	–	–	–	27.2 nM	32.4 nM
